T1: DR4 (human, UniProt O00220)
T1 sequence (receptor, looked up): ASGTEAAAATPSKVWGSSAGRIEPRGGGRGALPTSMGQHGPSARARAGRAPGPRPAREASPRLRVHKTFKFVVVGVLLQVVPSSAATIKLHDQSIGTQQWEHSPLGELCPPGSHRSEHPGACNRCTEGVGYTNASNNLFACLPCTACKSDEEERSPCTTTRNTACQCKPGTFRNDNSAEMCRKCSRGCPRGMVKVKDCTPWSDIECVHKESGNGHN

T2: CD30 (human, UniProt P28908)
T2 sequence (receptor, looked up): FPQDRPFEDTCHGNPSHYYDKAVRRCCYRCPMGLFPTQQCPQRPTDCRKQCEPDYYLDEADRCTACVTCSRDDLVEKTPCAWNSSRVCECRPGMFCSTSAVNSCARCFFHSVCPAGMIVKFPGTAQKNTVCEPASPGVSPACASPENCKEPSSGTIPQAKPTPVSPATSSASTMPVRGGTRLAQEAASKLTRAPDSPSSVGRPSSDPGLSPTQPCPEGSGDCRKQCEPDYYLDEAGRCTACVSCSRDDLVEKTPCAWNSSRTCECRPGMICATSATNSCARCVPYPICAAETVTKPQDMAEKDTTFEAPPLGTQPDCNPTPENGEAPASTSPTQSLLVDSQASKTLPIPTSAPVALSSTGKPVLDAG

T3: HVEM (human, UniProt Q92956)
T3 sequence (receptor, looked up): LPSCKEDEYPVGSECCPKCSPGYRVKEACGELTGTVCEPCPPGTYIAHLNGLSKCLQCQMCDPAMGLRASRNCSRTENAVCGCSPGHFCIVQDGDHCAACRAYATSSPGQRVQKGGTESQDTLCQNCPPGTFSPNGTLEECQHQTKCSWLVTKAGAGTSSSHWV

T4: DR3 (human, UniProt Q93038)
T4 sequence (receptor, looked up): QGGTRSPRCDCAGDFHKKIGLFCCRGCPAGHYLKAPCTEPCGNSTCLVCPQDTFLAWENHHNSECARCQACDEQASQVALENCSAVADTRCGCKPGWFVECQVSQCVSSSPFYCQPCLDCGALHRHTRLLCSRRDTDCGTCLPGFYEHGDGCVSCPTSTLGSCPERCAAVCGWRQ

T5: TACI (human, UniProt O14836)
T5 sequence (receptor, looked up): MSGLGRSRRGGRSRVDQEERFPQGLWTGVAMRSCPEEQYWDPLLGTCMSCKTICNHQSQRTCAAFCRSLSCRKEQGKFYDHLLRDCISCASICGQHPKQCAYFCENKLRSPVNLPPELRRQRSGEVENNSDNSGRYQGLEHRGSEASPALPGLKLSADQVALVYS

T6: BAFFR (human, UniProt Q96RJ3)
T6 sequence (receptor, looked up): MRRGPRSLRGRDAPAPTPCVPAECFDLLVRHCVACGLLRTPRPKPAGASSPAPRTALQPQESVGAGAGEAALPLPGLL

T7: DcR2 (human, UniProt Q9UBN6)
T7 sequence (receptor, looked up): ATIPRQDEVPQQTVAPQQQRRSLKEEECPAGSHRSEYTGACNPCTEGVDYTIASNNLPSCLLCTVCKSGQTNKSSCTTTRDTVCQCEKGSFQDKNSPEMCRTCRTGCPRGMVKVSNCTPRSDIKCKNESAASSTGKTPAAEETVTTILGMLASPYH

T8: CD27 (human, UniProt P26842)
T8 sequence (receptor, looked up): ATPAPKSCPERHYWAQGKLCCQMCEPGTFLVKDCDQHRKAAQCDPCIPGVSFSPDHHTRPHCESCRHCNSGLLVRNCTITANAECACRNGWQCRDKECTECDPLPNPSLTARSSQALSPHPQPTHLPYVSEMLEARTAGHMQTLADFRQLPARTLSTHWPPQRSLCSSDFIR

T9: TNFR1 (human, UniProt P19438)
T9 sequence (receptor, looked up): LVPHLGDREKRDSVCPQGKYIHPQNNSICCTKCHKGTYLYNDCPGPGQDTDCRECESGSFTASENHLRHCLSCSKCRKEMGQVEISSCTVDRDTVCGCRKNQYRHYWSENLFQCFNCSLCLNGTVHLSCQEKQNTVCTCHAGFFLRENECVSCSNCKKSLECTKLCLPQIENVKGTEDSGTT


Legend:
Experiment in all cases: specificity ELISA, bacterial lysate on HisGrab nickel plate
DR4 = biological target: T1, DR4
Procedure: (§1) For the specificity ELISA, a crude cell lysate was made from bacteria expressing members of the TNFRSF family. To prevent nonspecific binding to the plate 50 μL of 5% BSA was added per mL of bacterial lysate. […] The plate was then rinsed three times with PBST, then MAB was diluted to 0.5 μg/mL in 10% FBS in PBS and 100 μL was added to each well. The plate was incubated for 1 hour at room temperature and then rinsed three times with PBST. Anti-human kappa antibody (Sigma #A7164) conjugated to HRP was diluted 1:5000 in 1:1 PBST: 10% FBS in PBS and 100 μL added to each well. The plate was incubated for 1 hour at room temperature, and then washed three times with PBST. 100 μL of SureBlue TMB substrate was added to each well and the plate was incubated for about 10 min at room temperature before stopping the reaction with 100 μL /well of 2N H₂SO₄.

CD30 = biological target: T2, CD30
Procedure: as §1

HVEM = biological target: T3, HVEM
Procedure: as §1

DR3 = biological target: T4, DR3
Procedure: as §1

TACI = biological target: T5, TACI
Procedure: as §1

CD40 = CD40 (human, UniProt P25942)
Sequence of CD40 (P25942 21-193 limits assumed): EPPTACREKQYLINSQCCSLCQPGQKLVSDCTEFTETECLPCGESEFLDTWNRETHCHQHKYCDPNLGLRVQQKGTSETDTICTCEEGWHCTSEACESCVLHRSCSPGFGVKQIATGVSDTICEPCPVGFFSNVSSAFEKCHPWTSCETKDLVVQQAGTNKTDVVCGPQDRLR
Procedure: as §1

BAFFR = biological target: T6, BAFFR
Procedure: as §1

DcR2 = biological target: T7, DcR2
Procedure: as §1

CD27 = biological target: T8, CD27
Procedure: as §1

TNFR1 = biological target: T9, TNFR1
Procedure: as §1

Binder	binding result (DR4)	binding result (CD30)	binding result (HVEM)	binding result (DR3)	binding result (TACI)	binding result (CD40)	binding result (BAFFR)	binding result (DcR2)	binding result (CD27)	binding result (TNFR1)
MAB4 (IgG1 kappa) (antibody, V domains shown) VH: EVQLVESGGGLVQSGGSLRLSCAASGFSLSSYGVDWVRQAPGKGLEWVGVIWGGGGTYYASSLMGRFTISRDNSKNTLYLQMNSLRAEDTAVYYCAKHAYGHDGGFAMDYWGQGTLVTVSS VL: EIVMTQSPATLSVSPGERATLSCRASESVSSNVAWYQQRPGQAPRLLIYGASNRATGIPARFSGSGSGTDFTLTISRLEPEDFAVYYCGQSYSYPFTFGQGTKLEIKR	no binding (tested: not on the sheet; paragraph 335: 0.5 µg/mL)	no binding (tested: not on the sheet; paragraph 335: 0.5 µg/mL)	no binding (tested: not on the sheet; paragraph 335: 0.5 µg/mL)	no binding (tested: not on the sheet; paragraph 335: 0.5 µg/mL)	no binding (tested: not on the sheet; paragraph 335: 0.5 µg/mL)	no binding (tested: not on the sheet; paragraph 335: 0.5 µg/mL)	no binding (tested: not on the sheet; paragraph 335: 0.5 µg/mL)	no binding (tested: not on the sheet; paragraph 335: 0.5 µg/mL)	no binding (tested: not on the sheet; paragraph 335: 0.5 µg/mL)	no binding (tested: not on the sheet; paragraph 335: 0.5 µg/mL)
MAB5 (IgG1 kappa) (antibody, V domains shown, also called MABS (misprint of MAB5)) VH: EVQLVESGGGLVQSGGSLRLSCAASGFSLSSYGVDWVRQAPGKGLEWLGVIWGGGGTYYTSSLMGRFTISRDNSKNTLYLQMNSLRAEDTAVYYCAKHAYGHDGGFAMDYWGQGTLVTVSS VL: EIVMTQSPATLSVSPGERATLSCRASESVSSNVAWYQQRPGQAPRLLIYGASNRATGIPARFSGSGSGTDFTLTISRLEPEDFAVYYCGQSYSYPFTFGQGTKLEIKR	no binding (tested: not on the sheet; paragraph 335: 0.5 µg/mL)	no binding (tested: not on the sheet; paragraph 335: 0.5 µg/mL)	no binding (tested: not on the sheet; paragraph 335: 0.5 µg/mL)	no binding (tested: not on the sheet; paragraph 335: 0.5 µg/mL)	no binding (tested: not on the sheet; paragraph 335: 0.5 µg/mL)	no binding (tested: not on the sheet; paragraph 335: 0.5 µg/mL)	no binding (tested: not on the sheet; paragraph 335: 0.5 µg/mL)	no binding (tested: not on the sheet; paragraph 335: 0.5 µg/mL)	no binding (tested: not on the sheet; paragraph 335: 0.5 µg/mL)	no binding (tested: not on the sheet; paragraph 335: 0.5 µg/mL)

Source: patent publication US20170306037A1 (Novartis, published 2017)
